This is an account of results in the RNAGym collection of RNA variant scans (doi:10.1021/acssynbio.7b00057).

B1: Pistol ribozyme (parent)
chain: GGGUCGUUGUUCCAUAAUCGCGUGGAUAUGGCACGCAAGUUUCUACCGGGCACCGUAAAUGUCCGACUGGAGCCGUUCGGGCGGCUAUAAACAGACCUCAGGCCCGAAGCGUGGCGGCACCUGCCGCCGGUGGUAAAAAAGAUCGGAAGAGCACACGUCU

The variants in the series derive from B1. Put plainly: aptazyme ON/OFF ratio, guanine; higher = stronger switching; co-transcriptional cleavage with and without guanine.
Take U7A U8A U10G U11C C12A: the “aptazyme ON/OFF ratio” value stood at 1.61.
For U7A U8A U10G U11C C12U the value was 1.1; for U7A U8A U10G U11C C12G, 1.32; for U7A U8C G9A U10A U11C C12A C13G, 1.18.
To U7A U8C G9A U10A U11C C12A C13A belongs 1.14; to U7A U8C G9A U10A U11C C12A C13U, 1.25.
For the variant U7A U8A U11C C13G, the “aptazyme ON/OFF ratio” value stood at 1.09.
For U7A U8A U11C C13A the value was 1.4.
For U7A U8A U11C C13U the value was 1.23; for U7A U8A U10G U11G C13A, 1.07.
For U7A U8A U10G U11G C13G the value was 1.12; for U7A U8A U10G U11G C13U, 1.5; for U7A U8C G9A U10A U11G C12G C13U, 1.11.
As to U7A U8C G9A U10A U11G C12G C13A, the “aptazyme ON/OFF ratio” value came to 1.11.
For U7A U8C G9A U10A U11G C12G C13G the value was 1.31.
To U7A U8C C12A C13A belongs 1.28.
For U7A U8C C12A C13U the value was 1.24; for U7A U8C C12A C13G, 1.11.
For the variant U7A U8A U10C U11G C12A, the “aptazyme ON/OFF ratio” value worked out at 1.09.
To U7A U8A U10C U11G C12G belongs 1.34.
For U7A U8A U10C U11G C12U the value was 1.45; for U7A U8A U10G U11A C12A, 1.4; for U7A U8A U10G U11A C12G, 1.34.
Turning to U7A U8A U10G U11A C12U, the “aptazyme ON/OFF ratio” value came out at 1.24.
Regarding U7A U8C G9A U10A C12G C13G, the “aptazyme ON/OFF ratio” value is 1.25.
To U7A U8C G9A U10A C12G C13A belongs 1.14; to U7A U8C G9A U10A C12G C13U, 1.28; to U7A U8A U10A U11G C12G, 0.984.
With U7A U8A U10A U11G C12U, the “aptazyme ON/OFF ratio” value is 1.17.
To U7A U8A U10A U11G C12A belongs 1.09; to U7A U8A U10G C13A, 1.31; to U7A U8A U10G C13U, 1.22.
For U7A U8A U10G C13G the value was 1.12; for U7A U8C G9A U10C U11C C12G C13U, 1.06.
For U7A U8C G9A U10C U11C C12G C13G the value was 1.07; for U7A U8C G9A U10C U11C C12G C13A, 1.06.
In the case of U7A U8A U10C U11C C13U, the “aptazyme ON/OFF ratio” value was 1.02.
With U7A U8A U10C U11C C13G, the “aptazyme ON/OFF ratio” value is 1.07.
For U7A U8A U10C U11C C13A the value was 1.01; for U7A U8A U10C U11A C12G C13G, 1.24.
For U7A U8A U10C U11A C12G C13A the value was 1.12.
To U7A U8A U10C U11A C12G C13U belongs 1.12; to U7A U8A U10G U11A C12A C13G, 1.1.
Consider U7A U8A U10G U11A C12A C13U, for which the “aptazyme ON/OFF ratio” value is 1.7.
For U7A U8A U10G U11A C12A C13A the value was 1.64; for U7A U8A U10G C12G C13A, 1.17.
On to U7A U8A U10G C12G C13G, for which the “aptazyme ON/OFF ratio” value turned out to be 0.977.
To U7A U8A U10G C12G C13U belongs 1.28; to U7A U8C G9A U10C U11C C12A C13A, 1.08; to U7A U8C G9A U10C U11C C12A C13U, 1.04.
Take U7A U8C G9A U10C U11C C12A C13G: the “aptazyme ON/OFF ratio” value came to 1.09.
For U7A U8A U10G U11G C12A the value was 1.3.
For U7A U8A U10G U11G C12G the value was 1.33; for U7A U8A U10G U11G C12U, 1.46; for U7A U8C G9A U10A C12U C13G, 1.2.
For U7A U8C G9A U10A C12U C13A the value was 1.11; for U7A U8C G9A U10A C12U C13U, 1.12; for U7A U8A U10C U11A C12A C13A, 1.1.
In the case of U7A U8A U10C U11A C12A C13G, the “aptazyme ON/OFF ratio” value came out at 1.18.
For the variant U7A U8A U10C U11A C12A C13U, the “aptazyme ON/OFF ratio” value turned out to be 1.16.
Turning to U7A U8A U10G U11G C12A C13U, the “aptazyme ON/OFF ratio” value was determined as 1.34.
For U7A U8A U10G U11G C12A C13G the value was 1.16; for U7A U8A U10G U11G C12A C13A, 1.21; for U7A U8A U10G U11C C12U C13A, 1.42.
For U7A U8A U10G U11C C12U C13U the value was 1.47; for U7A U8A U10G U11C C12U C13G, 1.48.
For U7A U8C G9A C13U, the “aptazyme ON/OFF ratio” value was 1.18.
For U7A U8C G9A C13A the value was 1.14; for U7A U8C G9A C13G, 1.04.
To U7A U8A U10A U11G C12U C13A belongs 1.34; to U7A U8A U10A U11G C12U C13G, 1.15.
To U7A U8A U10A U11G C12U C13U belongs 1.31; to U7A U8C G9A U10A U11A C12A C13U, 1.25.
Consider U7A U8C G9A U10A U11A C12A C13G, for which the “aptazyme ON/OFF ratio” value is 1.18.
For U7A U8C G9A U10A U11A C12A C13A the value was 1.11.
Regarding U7A U8A U10C U11A C13U, the “aptazyme ON/OFF ratio” value is 1.05.
For U7A U8A U10C U11A C13G the value was 1.09; for U7A U8A U10C U11A C13A, 1.13; for U7A U8A U10C U11G, 1.2.
To U7A U8A U10C U11A belongs 1.2; to U7A U8A U10C U11C, 1.04; to U7A U8A U11A C12G C13U, 1.16.
For U7A U8A U11A C12G C13A the value was 1.17.
